First the molecules themselves.
B1: DG_3CH953-SG182/3CL633-SK1 (antibody, V domains shown)
VH: QVQLVQSGPDVEKPGASVKVSCKASGYTFTSNYIHWVRQAPGQGLEWMGVINPRGGSRRSAQKFQGRITMTRDTSTSTVYMELSSLRSEDTAVYYCARGGRALFYDSYTTPFDGGSWWFDPWGQGSLVTVSS
VL: DIQLTQSPSSLSASVGDRVTITCQASQDIRKYLNWYQQKPGKAPKLLIYDASNLKTGVPSRFSGSGSGTDFTLTISSLQPEDVATYYCQQFDDLPITFGQGTRLQIKR
B2: DG_3CH989-SG182/3CL633-SK1 (antibody, V domains shown)
VH: B1 VH with P9A, D10E, E12K, I68V
VL: B1 VL
B3: DG_3CH987-SG182/3CL-SK1 (antibody, V domains shown)
VH: B1 VH with N32Y
VL: B1 VL with I21F, L73F
B4: DG_3CH987-SG182/3CL012-SK1 (antibody, V domains shown)
VH: B1 VH with N32Y
VL: B1 VL with I21F, L73F, D92E
B5: DG_3CH987-SG182/3CL119-SK1 (antibody, V domains shown)
VH: B1 VH with N32Y
VL: B1 VL with I21F, D28E, L73F
B6: DG_3CH953-SG182/3CL666-SK1 (antibody, V domains shown)
VH: B1 VH
VL: B1 VL with D28E
B7: DG_3CH953-SG182/3CL668-SK1 (antibody, V domains shown)
VH: B1 VH
VL: B1 VL with D92E
B8: DG_3CH992-SG182/3CL-SK1 (antibody, V domains shown)
VH: B1 VH with P9A, D10E, E12K, N32Y, I68V
VL: B1 VL with I21F, L73F
B9: DG_3CH1047-SG1095/3CL-SK1 (antibody, human IgG1, kappa, L234A L235A)
heavy: QVQLVQSGPDVEKPGASVKVSCKASGYTFTSYYMHWVRQAPGQGLEWMGVINPRGGSRRSAQKFQGRITMTRDTSTSTVYMELSSLRSEDTAVYYCARGGEALFYDSYTTPFDGGSWWFDPWGQGSLVTVSSASTKGPSVFPLAPSSKSTSGGTAALGCLVKDYFPEPVTVSWNSGALTSGVHTFPAVLQSSGLYSLSSVVTVPSSSLGTQTYICNVNHKPSNTKVDKRVEPKSCDKTHTCPPCPAPEAAGGPSVFLFPPKPKDTLMISRTPEVTCVVVDVSHEDPEVKFNWYVDGVEVHNAKTKPREEQYNSTYRVVSVLTVLHQDWLNGKEYKCKVSNAALPAPISKTISKAKGQPREPQVYTLPPSREEMTKNQVSLTCLVKGFYPSDIAVEWESNGQPENNYKTTPPVLDSDGSFFLYSKLTVDKSRWQQGNVFSCSVMHEALHNHYTQKSLSLSP
light: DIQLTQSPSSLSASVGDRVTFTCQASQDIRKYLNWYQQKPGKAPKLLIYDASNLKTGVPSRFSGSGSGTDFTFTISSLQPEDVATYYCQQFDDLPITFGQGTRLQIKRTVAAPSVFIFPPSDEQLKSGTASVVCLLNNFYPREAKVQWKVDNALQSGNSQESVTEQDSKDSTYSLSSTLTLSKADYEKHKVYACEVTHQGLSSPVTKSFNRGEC
B10: DG_3CH989-SG182/3CL012-SK1 (antibody, V domains shown)
VH: B1 VH with P9A, D10E, E12K, I68V
VL: B1 VL with I21F, L73F, D92E
B11: DG_3CH989-SG182/3CL666-SK1 (antibody, V domains shown)
VH: B1 VH with P9A, D10E, E12K, I68V
VL: B1 VL with D28E
B12: DG_3CH989-SG182/3CL668-SK1 (antibody, V domains shown)
VH: B1 VH with P9A, D10E, E12K, I68V
VL: B1 VL with D92E
B13: DG_3CH989-SG182/3CL-SK1 (antibody, V domains shown)
VH: B1 VH with P9A, D10E, E12K, I68V
VL: B1 VL with I21F, L73F
B14: DG_3CH953-SG1095/3CL119-SK1 (antibody)
heavy: B9 heavy with Y32N, M34I, E101R
light: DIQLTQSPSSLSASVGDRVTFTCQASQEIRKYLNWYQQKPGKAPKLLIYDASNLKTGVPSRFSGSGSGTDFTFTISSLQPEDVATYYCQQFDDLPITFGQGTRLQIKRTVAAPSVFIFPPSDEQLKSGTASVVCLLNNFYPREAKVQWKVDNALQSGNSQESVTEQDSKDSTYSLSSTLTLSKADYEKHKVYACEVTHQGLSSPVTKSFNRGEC
B15: DG_3CH1000-SG182/3CL633-SK1 (antibody, V domains shown)
VH: B1 VH with N32Y, I34M
VL: B1 VL
B16: DG_3CH992-SG182/3CL012-SK1 (antibody, V domains shown)
VH: B1 VH with P9A, D10E, E12K, N32Y, I68V
VL: B1 VL with I21F, L73F, D92E
B17: DG_3CH953-SG1095/3CL012-SK1 (antibody, human IgG1, kappa, L234A L235A)
heavy: B9 heavy with Y32N, M34I, E101R
light: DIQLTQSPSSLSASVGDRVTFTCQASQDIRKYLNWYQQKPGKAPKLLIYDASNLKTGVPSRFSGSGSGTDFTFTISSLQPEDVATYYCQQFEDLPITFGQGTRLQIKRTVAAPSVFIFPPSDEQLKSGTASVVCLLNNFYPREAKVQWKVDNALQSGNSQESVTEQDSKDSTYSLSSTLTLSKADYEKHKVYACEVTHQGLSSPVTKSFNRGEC
B18: DG_3CH992-SG182/3CL119-SK1 (antibody, V domains shown)
VH: B1 VH with P9A, D10E, E12K, N32Y, I68V
VL: B1 VL with I21F, D28E, L73F
B19: DG_3CH989-SG182/3CL119-SK1 (antibody, V domains shown)
VH: B1 VH with P9A, D10E, E12K, I68V
VL: B1 VL with I21F, D28E, L73F
B20: DG_3CH992-SG182/3CL666-SK1 (antibody, V domains shown)
VH: B1 VH with P9A, D10E, E12K, N32Y, I68V
VL: B1 VL with D28E
B21: DG_3CH953-SG1106/3CL-SK1 (antibody)
heavy: B9 heavy with Y32N, M34I, E101R, M443L, N449A, Q453R, S455E
light: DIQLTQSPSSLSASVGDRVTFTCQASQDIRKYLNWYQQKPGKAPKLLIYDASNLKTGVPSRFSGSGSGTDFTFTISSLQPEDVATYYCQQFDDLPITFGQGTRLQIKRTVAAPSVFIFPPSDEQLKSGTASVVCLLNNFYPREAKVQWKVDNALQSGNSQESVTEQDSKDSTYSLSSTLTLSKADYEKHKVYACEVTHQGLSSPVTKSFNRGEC
B22: DG_3CH953-SG1095/3CL-SK1 (antibody, human IgG1, kappa, L234A L235A)
heavy: B9 heavy with Y32N, M34I, E101R
light: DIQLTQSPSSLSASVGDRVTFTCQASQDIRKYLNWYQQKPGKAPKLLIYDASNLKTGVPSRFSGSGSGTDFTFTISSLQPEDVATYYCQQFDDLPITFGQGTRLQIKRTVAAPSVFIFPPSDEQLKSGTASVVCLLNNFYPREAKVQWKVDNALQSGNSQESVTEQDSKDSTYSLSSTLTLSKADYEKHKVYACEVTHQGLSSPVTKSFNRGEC
B23: DG_3CH992-SG182/3CL633-SK1 (antibody, V domains shown)
VH: B1 VH with P9A, D10E, E12K, N32Y, I68V
VL: B1 VL
B24: DG_3CH1047-SG1106/3CL-SK1 (antibody)
heavy: B9 heavy with M443L, N449A, Q453R, S455E
light: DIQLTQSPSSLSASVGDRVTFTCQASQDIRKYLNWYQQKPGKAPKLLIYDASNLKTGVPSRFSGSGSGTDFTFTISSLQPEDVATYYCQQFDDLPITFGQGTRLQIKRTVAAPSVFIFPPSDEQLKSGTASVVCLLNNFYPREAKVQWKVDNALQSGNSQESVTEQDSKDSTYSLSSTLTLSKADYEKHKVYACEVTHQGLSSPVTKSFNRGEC

These results are taken from US20190218277A1 (Chugai, published 2019).

Residue numbers refer to the chain shown, from its start.

In one assay the target is T1, Recombinant soluble E protein (0.8E-His) from DENV-3 (DENV-3, UniProt P27915 281-673).
T1 construct: also called DENV-3 E protein; DV3
Assay: not given
For orientation: Kd means a measure of binding affinity in units of concentration. With B1, the Kd was 4.96 pM.

As for B2, the Kd was 2.37 pM.

Regarding B3, the Kd is 0.986 pM.

Consider B4, for which the Kd came out at 2.67 pM.

B5: the Kd came to 0.715 pM.

For the molecule B6, the Kd is 5.48 pM.

Consider B7, for which the Kd amounted to 2.36 pM.

For the molecule B8, the Kd was 4.03 pM.

With B9, the Kd is 2.93 pM.

As for B10, the Kd is 0.0967 pM.

Take B11: the Kd stood at 1.96 pM.

Turning to B12, the Kd turned out to be 3.03 pM.

For the molecule B13, the dissociation constant Kd came to 0.448 pM.

Consider B14, for which the Kd was determined as 7.18 pM.

For B15, the Kd turned out to be 4.25 pM.

Turning to B16, the Kd came out at 1.07 pM.

On to B17, for which the Kd came out at 5.53 pM.

In the case of B18, the Kd was determined as 0.515 pM.

On to B19, for which the Kd came out at 6.83 pM.

As to B20, the Kd turned out to be 0.802 pM.

Consider B21, for which the Kd came to 7.08 pM.

On to B22, for which the Kd is 7.03 pM.

In the case of B23, the Kd amounted to 2.95 pM.

Consider B24, for which the dissociation constant (Kd) is 4.71 pM.

The target in the next assay is T2, Recombinant soluble E protein (0.8E-His) from DENV-1 (DENV-1, UniProt P27909 281-675).
T2 construct: also called DENV-1 E protein; DV1
Assay: not given
For B1, the Kd is 1650 pM.

On to B2, for which the Kd worked out at 1540 pM.

In the case of B3, the Kd is 1820 pM.

Turning to B4, the Kd came to 1420 pM.

As for B5, the Kd is 1530 pM.

On to B6, for which the Kd is 1690 pM.

On to B7, for which the Kd stood at 1680 pM.

With B8, the Kd stood at 2020 pM.

Regarding B9, the dissociation constant (Kd) was found to be 2090 pM.

Take B10: the Kd was found to be 1520 pM.

Regarding B11, the Kd came to 1500 pM.

As to B12, the Kd was 1500 pM.

For the molecule B13, the dissociation constant (Kd) is 1840 pM.

As for B14, the Kd was 1990 pM.

Regarding B15, the Kd is 1770 pM.

As for B16, the Kd is 1720 pM.

Consider B17, for which the Kd was 1860 pM.

For the molecule B18, the Kd was found to be 1870 pM.

Turning to B19, the Kd stood at 1530 pM.

For B20, the dissociation constant (Kd) was 1390 pM.

Take B21: the Kd worked out at 1850 pM.

Consider B22, for which the Kd came to 1790 pM.

On to B23, for which the Kd is 1270 pM.

In the case of B24, the Kd was found to be 2120 pM.

Another assay concerns the target T3, Recombinant soluble E protein (0.8E-His) from DENV-2 (DENV-2, UniProt P14340 281-675).
T3 construct: also called DENV-2 E protein; DV2
Nature of the assay: SPR, Biacore T200. Background: SPR reads the build-up and loss of mass on a sensor chip optically.
Take B1: the binding result is “binds”.

Regarding B2, the binding result is listed as “binds”.

Consider B3, for which the binding result is on record as “binds”.

As to B4, the binding result is “binds”.

In the case of B5, the binding result was “binds”.

On to B6, for which the binding result is reported as “binds”.

As to B7, the binding result was “binds”.

Turning to B8, the binding result is given as “binds”.

Take B10: the binding result is recorded as “binds”.

B11: the binding result is listed as “binds”.

Turning to B12, the binding result is given as “binds”.

Regarding B13, the binding result is listed as “binds”.

As to B14, the binding result is “binds”.

On to B15, for which the binding result is “binds”.

B16: the binding result was “binds”.

With B17, the binding result was “binds”.

On to B18, for which the binding result is listed as “binds”.

As to B19, the binding result was “binds”.

B20: the binding result is listed as “binds”.

With B23, the binding result is reported as “binds”.

A further assay concerns the target T4, Recombinant soluble E protein (0.8E-His) from DENV-4 (DENV-4, UniProt P09866 280-674).
T4 construct: also called DENV-4 E protein; DV4
Nature of the assay: SPR, Biacore T200.
B1: the binding result is “binds”.

Regarding B2, the binding result is “binds”.

Regarding B3, the binding result is on record as “binds”.

As to B4, the binding result is listed as “binds”.

Regarding B5, the binding result is listed as “binds”.

Consider B6, for which the binding result is “binds”.

Turning to B7, the binding result was “binds”.

For B8, the binding result is “binds”.

In the case of B10, the binding result is given as “binds”.

Turning to B11, the binding result is listed as “binds”.

B12: the binding result was “binds”.

Turning to B13, the binding result is listed as “binds”.

On to B14, for which the binding result was “binds”.

With B15, the binding result is “binds”.

Take B16: the binding result is “binds”.

For the molecule B17, the binding result is listed as “binds”.

Consider B18, for which the binding result was “binds”.

As to B19, the binding result was “binds”.

Take B20: the binding result is “binds”.

On to B23, for which the binding result was “binds”.
